{"source": "the supplement of paper PMC12042874", "note": "± gives the uncertainty stated by the source.", "data": [{"assay": "amyloid nucleation score (Sup35N fusion, yeast selection) (log enrichment); library NNK3; higher = more nucleation; inactive = no reads after selection", "outline": "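Using DiMSum, nucleation scores were taken as the log enrichment of output over input reads, centred on the mode score of non-aggregating sequences. The input and output reads came from Illumina sequencing of plasmid inserts, with sequences under 100 input reads excluded. The yeast were psi-negative, expressed Sup35N fused to peptides of 20 random codons, were induced with 100 μM copper sulfate for 24 hours, and were grown 7 days at 30°C on medium lacking adenine and uracil.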", "values": [{"substance": "PQRWLSPSYSRIVRM", "amyloid nucleation score": "1.39 ± 0.14"}, {"substance": "PRAMLPDWSSALVWWLN", "amyloid nucleation score": "inactive"}, {"substance": "PRGIDG", "amyloid nucleation score": "inactive"}, {"substance": "PRHWFREFMGMVMI", "amyloid nucleation score": "0.317 ± 0.51"}, {"substance": "PRIFLSR", "amyloid nucleation score": "inactive"}, {"substance": "PRLHRECNEGEVGL", "amyloid nucleation score": "0.206 ± 0.81"}, {"substance": "PRLRHVICHGRFWNPMIQVG", "amyloid nucleation score": "0.971 ± 0.19"}, {"substance": "PRLSAFVLRNYLRPKGYGGA", "amyloid nucleation score": "inactive"}, {"substance": "PRRTNKVARGGRHARVRKVE", "amyloid nucleation score": "inactive"}, {"substance": "PRVIHWSLALNSSHCNFVFF", "amyloid nucleation score": "2.67 ± 0.073"}, {"substance": "PSCMSDCISIIYS", "amyloid nucleation score": "inactive"}, {"substance": "PSFGDEDTYNRDLALTLMDC", "amyloid nucleation score": "inactive"}, {"substance": "PSPLDSRLEHYRMDSTCRVV", "amyloid nucleation score": "inactive"}, {"substance": "PSSSYPKSLRINMAFSFLMC", "amyloid nucleation score": "0.49 ± 0.53"}, {"substance": "PSTVTFRWFIVVSPLRHWFA", "amyloid nucleation score": "inactive"}, {"substance": "PSVWFFSTETFMVRCPADC", "amyloid nucleation score": "0.549 ± 0.33"}, {"substance": "PSYLKTFRDVLMTVSMYFVC", "amyloid nucleation score": "inactive"}, {"substance": "PTAESPLMPFNA", "amyloid nucleation score": "-0.478 ± 0.69"}, {"substance": "PTAFWGFGF", "amyloid nucleation score": "inactive"}, {"substance": "PTHILPYLVD", "amyloid nucleation score": "inactive"}, {"substance": "PTNFD", "amyloid nucleation score": "inactive"}, {"substance": "PVAMAYAVSSVVDMASN", "amyloid nucleation score": "inactive"}, {"substance": "PVFFM", "amyloid nucleation score": "inactive"}, {"substance": "PVGHSSMSLYRGR", "amyloid nucleation score": "inactive"}, {"substance": "PVGKMDLRIDKNSWSYLVLD", "amyloid nucleation score": "inactive"}, {"substance": "PVGVLYTSANGTDFVNIVRD", "amyloid nucleation score": "inactive"}, {"substance": "PVHSFNLAIYMRLFHVWPVF", "amyloid nucleation score": "inactive"}, {"substance": "PVISMHIVVLCGKQKKTMSP", "amyloid nucleation score": "0.594 ± 0.23"}, {"substance": "PVKLC", "amyloid nucleation score": "inactive"}, {"substance": "PVLEYKVL", "amyloid nucleation score": "inactive"}, {"substance": "PVLPQGLRVLYDSVSVTSHL", "amyloid nucleation score": "inactive"}, {"substance": "PVMSS", "amyloid nucleation score": "inactive"}, {"substance": "PVNIVCTVNSLSGSYED", "amyloid nucleation score": "inactive"}, {"substance": "PVNNIYGRLPGLLKLEKVSS", "amyloid nucleation score": "inactive"}, {"substance": "PVSAH", "amyloid nucleation score": "1.08 ± 0.17"}, {"substance": "PVVHFLWSLYRNLVCVDGKV", "amyloid nucleation score": "inactive"}, {"substance": "PWCVKIHRWVLYWSYKLSIS", "amyloid nucleation score": "inactive"}, {"substance": "PWFTMVRIGEMVLYLRMQRR", "amyloid nucleation score": "inactive"}, {"substance": "PWGEILINGR", "amyloid nucleation score": "inactive"}, {"substance": "PYQDIMNSQESGGDE", "amyloid nucleation score": "inactive"}, {"substance": "PYVECSWEAQG", "amyloid nucleation score": "inactive"}, {"substance": "QAIGIRICSK", "amyloid nucleation score": "inactive"}, {"substance": "QASIVSTG", "amyloid nucleation score": "-0.926 ± 2.4"}, {"substance": "QDIELMFSFFDGKAFSSYHL", "amyloid nucleation score": "-0.787 ± 0.98"}, {"substance": "QDTLVPYMFKQITVYVYGLA", "amyloid nucleation score": "inactive"}, {"substance": "QDVAFAAEYELTKCSVLFSN", "amyloid nucleation score": "inactive"}, {"substance": "QDYGYFNTYQFVRKWSSISL", "amyloid nucleation score": "inactive"}, {"substance": "QEAGFMYGCYFVILQNHAGF", "amyloid nucleation score": "1.3 ± 0.092"}, {"substance": "QELLPIRYLVE", "amyloid nucleation score": "inactive"}, {"substance": "QFIEMSSQYFSMRYVDRVAD", "amyloid nucleation score": "inactive"}, {"substance": "QFNMKVFMHDWWRLLLPKSK", "amyloid nucleation score": "inactive"}, {"substance": "QGSRLNGIKSPLCIGLKCSR", "amyloid nucleation score": "inactive"}, {"substance": "QGWPRKITVILFWILQSGSR", "amyloid nucleation score": "inactive"}, {"substance": "QHMSRYYVFLLNCIQCIMNG", "amyloid nucleation score": "1.58 ± 0.12"}, {"substance": "QHNLRDGMFLNGTYRNDAVR", "amyloid nucleation score": "inactive"}, {"substance": "QHTAFLRKVSPSLRG", "amyloid nucleation score": "inactive"}, {"substance": "QIHNRTMPCWRSKATVLGKT", "amyloid nucleation score": "inactive"}, {"substance": "QIKKAINHHKYFW", "amyloid nucleation score": "inactive"}, {"substance": "QILYFVDTEVSYMEASWRDS", "amyloid nucleation score": "inactive"}, {"substance": "QKHISY", "amyloid nucleation score": "inactive"}, {"substance": "QKIIVSR", "amyloid nucleation score": "inactive"}, {"substance": "QLCPHYFCKNKNATYGLTSR", "amyloid nucleation score": "inactive"}, {"substance": "QLFTVTLQLTLLSKIDTANL", "amyloid nucleation score": "1.03 ± 0.13"}, {"substance": "QLHVMNVYFFWKDSSALMRA", "amyloid nucleation score": "inactive"}, {"substance": "QLMDLTGFRRSSVYVLVCDF", "amyloid nucleation score": "inactive"}, {"substance": "QLSSYFRGLLFQCHSPQHGY", "amyloid nucleation score": "inactive"}, {"substance": "QLTLACSRLQAGLSSQRHLS", "amyloid nucleation score": "inactive"}, {"substance": "QLVLPSFMVTLSCG", "amyloid nucleation score": "inactive"}, {"substance": "QMQTATRHFNLG", "amyloid nucleation score": "inactive"}, {"substance": "QNMFSSANRLMSTC", "amyloid nucleation score": "inactive"}, {"substance": "QNRLQTSFMVGQRGNTLVTN", "amyloid nucleation score": "inactive"}, {"substance": "QNSGFWIRMH", "amyloid nucleation score": "-1.38 ± 2.4"}, {"substance": "QNVKIRRGICEEFYRRVQLD", "amyloid nucleation score": "inactive"}, {"substance": "QPCDHWHEDLNVCVVVIYAG", "amyloid nucleation score": "inactive"}, {"substance": "QPCPYKLCQFFRKDA", "amyloid nucleation score": "inactive"}, {"substance": "QPMKLRT", "amyloid nucleation score": "inactive"}, {"substance": "QQEKLCLKHTSQVDI", "amyloid nucleation score": "inactive"}, {"substance": "QQEMCTLFFRN", "amyloid nucleation score": "inactive"}, {"substance": "QQSTIIFFVWAWMELNPTWK", "amyloid nucleation score": "inactive"}, {"substance": "QQYYVAWFCDYDLFNCMNLM", "amyloid nucleation score": "1.99 ± 0.095"}, {"substance": "QRIHGLF", "amyloid nucleation score": "inactive"}, {"substance": "QRNSCLDFMK", "amyloid nucleation score": "inactive"}, {"substance": "QRYSLHDINEDYRYDWVNGL", "amyloid nucleation score": "inactive"}, {"substance": "QSDRVPRILLGKRFKSPLSF", "amyloid nucleation score": "inactive"}, {"substance": "QSLSVEH", "amyloid nucleation score": "inactive"}, {"substance": "QSNCCWVV", "amyloid nucleation score": "inactive"}, {"substance": "QSRSRSNARARWVVSKLSCS", "amyloid nucleation score": "0.21 ± 0.53"}, {"substance": "QSWLMPFCLVSSTWKV", "amyloid nucleation score": "inactive"}, {"substance": "QTDMWIDTWKVQPVWIEDEG", "amyloid nucleation score": "inactive"}, {"substance": "QTMDTYLWLAR", "amyloid nucleation score": "-0.083 ± 1.1"}, {"substance": "QTMLIM", "amyloid nucleation score": "inactive"}, {"substance": "QVFHFGCSEDARCVCRVHM", "amyloid nucleation score": "inactive"}, {"substance": "QVFLRMKRRICVPLFYLACN", "amyloid nucleation score": "0.422 ± 0.21"}, {"substance": "QVGSLFWLRY", "amyloid nucleation score": "inactive"}, {"substance": "QVSLSRRISFYGHLNSDNES", "amyloid nucleation score": "inactive"}, {"substance": "QWFVRNFLFNPNALRYFRSS", "amyloid nucleation score": "inactive"}, {"substance": "QYICTLTCSYFLGSMTIEHK", "amyloid nucleation score": "-0.022 ± 0.66"}, {"substance": "QYRDSYANSSQNPFHCFFNL", "amyloid nucleation score": "inactive"}, {"substance": "QYSHPQRIIFSF", "amyloid nucleation score": "-0.249 ± 0.43"}, {"substance": "RAALLGVSADFTKHTTRVWE", "amyloid nucleation score": "inactive"}, {"substance": "RAGATTFGVMVYKYDKFRQD", "amyloid nucleation score": "inactive"}, {"substance": "RARLMITYYLTDQASDNRYV", "amyloid nucleation score": "0.799 ± 0.28"}, {"substance": "RCFYKRYNYLS", "amyloid nucleation score": "inactive"}, {"substance": "RCIMRYCAKALCKVICSQWL", "amyloid nucleation score": "inactive"}, {"substance": "RCIVSRLTWGTILISFLQNR", "amyloid nucleation score": "inactive"}, {"substance": "RCIYTMVWVTNVNMVRRTGA", "amyloid nucleation score": "1.69 ± 0.084"}, {"substance": "RCQATWWNIIFFAIGDCDLL", "amyloid nucleation score": "inactive"}, {"substance": "RCRDGTILALC", "amyloid nucleation score": "inactive"}, {"substance": "RCREFERKLALSLQSVGS", "amyloid nucleation score": "inactive"}, {"substance": "RCSDYHMR", "amyloid nucleation score": "inactive"}, {"substance": "RCWILISANHQKDFVSHIFY", "amyloid nucleation score": "0.627 ± 0.36"}, {"substance": "RCYCCPRTDSLGMG", "amyloid nucleation score": "inactive"}, {"substance": "RDCTMYNTYFIWNIYPG", "amyloid nucleation score": "3.42 ± 0.07"}, {"substance": "RDFNMDTVRAVWISQILNSI", "amyloid nucleation score": "inactive"}, {"substance": "RDGTYRWSDLKTICLIRVSW", "amyloid nucleation score": "inactive"}, {"substance": "RDRCISFEYAVQTCHYECRP", "amyloid nucleation score": "-0.294 ± 0.74"}, {"substance": "RDRSVKRVVHSGFRFSIGEA", "amyloid nucleation score": "inactive"}, {"substance": "RDSVNFTSNCCSVGFNTFNS", "amyloid nucleation score": "2.67 ± 0.053"}, {"substance": "RDTYQSSCDWQW", "amyloid nucleation score": "0.077 ± 0.87"}]}]}
